Laboratory results published in PMC12407893 (bioRxiv, 2025).

T1: RPB5, as subunit of purified yeast pol II (S. cerevisiae, UniProt P20434 1-215)
T1 sequence: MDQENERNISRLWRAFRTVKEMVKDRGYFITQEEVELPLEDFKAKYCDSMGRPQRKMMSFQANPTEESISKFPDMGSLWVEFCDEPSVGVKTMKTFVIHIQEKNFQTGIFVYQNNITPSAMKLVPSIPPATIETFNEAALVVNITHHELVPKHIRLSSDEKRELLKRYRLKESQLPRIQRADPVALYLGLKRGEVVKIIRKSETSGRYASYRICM

B1: Prp40 FF4–6 (351–552) (domain or fragment)
chain: NYTRDRIARDNFKSLLREVPIKIKANTRWSDIYPHIKSDPRFLHMLGRNGSSCLDLFLDFVDEQRMYIFAQRSIAQQTLIDQNFEWNDADSDEITKQNIEKVLENDRKFDKVDKEDISLIVDGLIKQRNEKIQQKLQNERRILEQKKHYFWLLLQRTYTKTGKPKPSTWDLASKELGESLEYKALGDEDNIRRQIFEDFKPE
B2: GST-fused Prp40 FF6 extension (488–583) (domain or fragment)
chain: NERRILEQKKHYFWLLLQRTYTKTGKPKPSTWDLASKELGESLEYKALGDEDNIRRQIFEDFKPESSAPTAESATANLTLTASKKRHLTPAVELDY
B3: GST-fused Prp40 FF1 domain (134–189) (domain or fragment)
chain: EAEKEFITMLKENQVDSTWSFSRIISELGTRDPRYWMVDDDPLWKKEMFEKYLSNR
B4: GST-fused Prp40 FF2 domain (204–269) (domain or fragment)
chain: FKEAFQKMLQNNSHIKYYTRWPTAKRLIADEPIYKHSVVNEKTKRQTFQDYIDTLIDTQKESKKKL
B5: protein A-tagged Prp40, full length (natural protein)
chain: MSIWKEAKDASGRIYYYNTLTKKSTWEKPKELISQEELLLRENGWKAAKTADGKVYYYNPTTRETSWTIPAFEKKVEPIAEQKHDTVSHAQVNGNRIALTAGEKQEPGRTINEEESQYANNSKLLNVRRRTKEEAEKEFITMLKENQVDSTWSFSRIISELGTRDPRYWMVDDDPLWKKEMFEKYLSNRSADQLLKEHNETSKFKEAFQKMLQNNSHIKYYTRWPTAKRLIADEPIYKHSVVNEKTKRQTFQDYIDTLIDTQKESKKKLKTQALKELREYLNGIITTSSSETFITWQQLLNHYVFDKSKRYMANRHFKVLTHEDVLNEYLKIVNTIENDLQNKLNELRLRNYTRDRIARDNFKSLLREVPIKIKANTRWSDIYPHIKSDPRFLHMLGRNGSSCLDLFLDFVDEQRMYIFAQRSIAQQTLIDQNFEWNDADSDEITKQNIEKVLENDRKFDKVDKEDISLIVDGLIKQRNEKIQQKLQNERRILEQKKHYFWLLLQRTYTKTGKPKPSTWDLASKELGESLEYKALGDEDNIRRQIFEDFKPESSAPTAESATANLTLTASKKRHLTPAVELDY
B6: GST-fused Prp40 FF3 domain (270–335) (domain or fragment)
chain: KTQALKELREYLNGIITTSSSETFITWQQLLNHYVFDKSKRYMANRHFKVLTHEDVLNEYLKIVNT
B7: GST-fused Prp40 FF4 domain (351–415) (domain or fragment)
chain: NYTRDRIARDNFKSLLREVPIKIKANTRWSDIYPHIKSDPRFLHMLGRNGSSCLDLFLDFVDEQR

Experiments:
[1] = target: T2, yeast RNA polymerase II (pol II) WT, TAP tag on RPB3 (S. cerevisiae, UniProt P04050;P08518;P16370;P20433;P20434;P20435;P34087;P20436;P27999;P22139;P38902;P40 …); assay: cross-linking
[2] = target: T1, RPB5, as subunit of purified yeast pol …; assay: cross-linking
[3] = target: RPB1, as subunit of purified yeast pol II (S. cerevisiae, UniProt P04050 1-1733); assay: cross-linking
[4] = target: T2, yeast RNA polymerase II (pol II) WT, …; assay: pull-down
[5] = target: T2, yeast RNA polymerase II (pol II) WT, …; assay: pull-down; remark: listed apart in the source

RPB1, as subunit of purified yeast pol II, sequence (P04050 whole entry): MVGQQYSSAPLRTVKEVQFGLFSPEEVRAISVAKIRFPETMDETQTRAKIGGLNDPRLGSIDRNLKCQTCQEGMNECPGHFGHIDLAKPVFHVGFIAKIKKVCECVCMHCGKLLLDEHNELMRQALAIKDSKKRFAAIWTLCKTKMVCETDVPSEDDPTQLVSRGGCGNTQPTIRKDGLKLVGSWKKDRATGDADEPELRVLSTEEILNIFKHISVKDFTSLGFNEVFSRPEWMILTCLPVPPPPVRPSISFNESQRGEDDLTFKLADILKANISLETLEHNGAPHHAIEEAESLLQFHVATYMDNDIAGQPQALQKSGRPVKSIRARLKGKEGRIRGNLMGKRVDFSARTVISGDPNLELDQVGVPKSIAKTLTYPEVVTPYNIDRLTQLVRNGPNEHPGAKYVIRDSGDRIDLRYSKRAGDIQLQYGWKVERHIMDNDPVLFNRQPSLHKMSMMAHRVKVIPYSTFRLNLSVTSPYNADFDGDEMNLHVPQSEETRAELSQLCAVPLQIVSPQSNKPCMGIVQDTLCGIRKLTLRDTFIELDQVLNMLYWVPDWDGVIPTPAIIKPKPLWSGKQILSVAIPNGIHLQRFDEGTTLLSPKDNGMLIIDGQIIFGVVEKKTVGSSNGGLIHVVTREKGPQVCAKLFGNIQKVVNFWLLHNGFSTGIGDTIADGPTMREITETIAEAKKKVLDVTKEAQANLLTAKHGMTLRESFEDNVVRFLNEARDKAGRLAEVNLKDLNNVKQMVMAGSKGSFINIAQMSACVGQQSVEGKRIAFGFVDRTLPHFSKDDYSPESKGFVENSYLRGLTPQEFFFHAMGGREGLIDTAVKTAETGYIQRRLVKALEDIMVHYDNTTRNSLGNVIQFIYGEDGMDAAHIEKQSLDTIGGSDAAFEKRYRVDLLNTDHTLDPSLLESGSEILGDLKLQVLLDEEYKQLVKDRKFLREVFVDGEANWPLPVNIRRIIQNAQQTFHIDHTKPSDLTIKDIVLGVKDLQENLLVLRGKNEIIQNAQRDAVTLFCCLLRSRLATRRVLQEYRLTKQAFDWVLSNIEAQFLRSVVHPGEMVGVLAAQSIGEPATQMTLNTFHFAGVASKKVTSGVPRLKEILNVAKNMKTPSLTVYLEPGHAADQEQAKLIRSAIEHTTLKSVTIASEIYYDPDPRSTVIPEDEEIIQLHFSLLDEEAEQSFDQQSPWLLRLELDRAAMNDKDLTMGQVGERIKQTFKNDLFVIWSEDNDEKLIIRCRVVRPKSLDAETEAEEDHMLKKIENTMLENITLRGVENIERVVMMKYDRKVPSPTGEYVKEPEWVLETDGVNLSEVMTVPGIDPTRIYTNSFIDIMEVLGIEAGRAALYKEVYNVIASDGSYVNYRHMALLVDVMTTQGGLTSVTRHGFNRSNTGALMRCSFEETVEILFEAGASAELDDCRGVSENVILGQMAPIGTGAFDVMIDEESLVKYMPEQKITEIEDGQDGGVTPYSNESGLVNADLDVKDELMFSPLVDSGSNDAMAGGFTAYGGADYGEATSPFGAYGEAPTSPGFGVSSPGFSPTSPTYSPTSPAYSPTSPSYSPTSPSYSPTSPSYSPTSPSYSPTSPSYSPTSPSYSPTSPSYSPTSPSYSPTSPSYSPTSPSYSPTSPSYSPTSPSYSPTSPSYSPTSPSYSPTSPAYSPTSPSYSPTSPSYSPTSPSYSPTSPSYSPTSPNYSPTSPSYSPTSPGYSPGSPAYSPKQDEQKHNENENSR

| Binder | binding result [4] | other results |
| --- | --- | --- |
| B1 |  | binding result [1]: binds; binding result [2]: binds; binding result [3]: binds |
| B2 | binds |  |
| B3 | binds |  |
| B4 | binds |  |
| B5 |  | binding result [5]: binds |
| B6 | binds |  |
| B7 | binds |  |
